This is an account of results in patent US20210115135A1 (ZHEJIANG SHIMAI PHARMACEUTICAL, published 2021).

Where a chain is given by its changes, count along the chain named. “And” between values parts separate entries of the source, which are not always exact repeats. Equal values may be shown once.

First the molecules themselves.
T1: recombinant human LAG3 (Sino Biological Inc.) (human, UniProt P18627 23-450)
T1 construct: Bought recombinant protein; also called CD223; biotinylated recombinant human LAG3
T1 sequence (looked up): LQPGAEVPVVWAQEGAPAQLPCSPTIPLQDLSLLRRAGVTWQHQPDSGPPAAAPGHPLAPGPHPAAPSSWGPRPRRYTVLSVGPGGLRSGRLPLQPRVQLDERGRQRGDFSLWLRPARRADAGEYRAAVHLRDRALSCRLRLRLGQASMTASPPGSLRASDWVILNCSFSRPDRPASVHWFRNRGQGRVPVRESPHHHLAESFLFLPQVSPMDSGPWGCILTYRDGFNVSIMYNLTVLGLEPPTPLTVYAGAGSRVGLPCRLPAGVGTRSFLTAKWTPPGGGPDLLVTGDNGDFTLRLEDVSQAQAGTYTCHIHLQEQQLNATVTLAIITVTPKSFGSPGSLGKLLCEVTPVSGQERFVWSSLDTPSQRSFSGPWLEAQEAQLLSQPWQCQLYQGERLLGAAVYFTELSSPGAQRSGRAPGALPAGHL

B1: DNV1 Fab (Fab, V domains shown)
VH: QVQLQQWGAGLLKPSETLSLTCAVYGGSFSGYYWSWIRQPPGKGLEWIGEINHSGSTNYNPSLKSRVTISVDTSKNQFSLKLSSVTAADTAVYYCARITPRFDAFDIWGQGTMVTVSS
VL: QSVLTQPPSVSAAPGRKVTISCSGSSSNIGTNSVSWYQQFPGTAPKLLIYDNNKRLSRIPDRFSGSKSGTSASLAISGLQSEDEADYYCAAWDDSLTGYVFGTGTKVTVL
notes: Human Fab from a phage library, hexahistidine-tagged, detected through a FLAG tag, made in E. coli HB2151
B2: DNV3 Fab (Fab, V domains shown)
VH: EVQLVQSGAEVKKPGASVKVSCKASGYTFTSYGISWVRQAPGQGLEWMGWISAYNGNTNYAQKLQGRVTMTTDTSTSTAYMELRSLRSDDTAVYYCARDSSSWWVDAFDIWGQGTMVTVSS
VL: QSVLTQPPSVSAAPGQKVTISCSGSTSNIAINYVSWYQQVPGTVPKLLIYDDDKRPSGIPDRFSGSKSGTSATLDISGLQTGDEAHYYCGVWDNSLLAVLFGGGTSLTVL
notes: as for B1
B3: DNV3.3 Fab (Fab, V domains shown)
VH: B2 VH
VL: QSVLTQPPSASGTPGQRVTISCSGSSSNIGNNAVNWYQQLPGKAPKLLIYYDDLLPSGVSDRFSGSKSGTSASLAISGLRSEDEGDYFCAAWDDSLSGQVLFGGGTKLTVL
notes: Light-chain-shuffled Fab variant of DNV3
B4: DNV3.7 Fab (Fab, V domains shown)
VH: B2 VH
VL: SYELTQPPSVSEAPRQRVTISCSGSSSNIGSNAVSWYQQVPRKAPKLLVYYDDLLPSGVSDRFSGSKSGTSASLAIRGLQSEDEADYYCAAWDDSLNAFVFGTGTKVTVL
notes: as for B3
B5: DNV3.15 Fab (Fab, V domains shown)
VH: B2 VH
VL: LPVLTQPPSASGTPGQRITISCSGSSSNIGSATVNWYQHLPGTAPKLLIYGDNQRPSGVADRFSGSKSGTSASLEIRGLQSEDEADYYCAAWDGSLDGVMFGGGTRVNVL
notes: as for B3
B6: DNV3.14 Fab (Fab, V domains shown)
VH: B2 VH
VL: PYVLTQPPSVSGAPRQRVTISCSGGSSNIASNAVNWYQQFPGKAPKLLVYYDDLLPSGVSDRFSGSKTGTSASLAISALQSEDEADYFCAAWDDSLNGVLFGGGTKLTVL
notes: as for B3
B7: DNV3.18 Fab (Fab, V domains shown)
VH: B2 VH
VL: SVVTQPPSVSEAPRQRVTISCSGSSSNIGNNAVNWYQQLPGKAPKLLIYYDDLLPSGVSDRFSGSKSGTSASLAISGLQSEDEADYYCAAWDDSLNAVVFGGGTKLTVL
notes: as for B3
B8: DNV3.8 Fab (Fab, V domains shown)
VH: B2 VH
VL: SYELTQPPSVSEAPRQRATISCSGSRSNIGNNAVSWYQRLPGQAPKLLIYYDTFLPSGVSDRFSGSKSGTSASLTISGLQSDDEADYYCAAWDDSLNGVLFGGGTKLTVQ
notes: as for B3
B9: DNV3.4 Fab (Fab, V domains shown)
VH: B2 VH
VL: SYVLTQPPSTSAAPGQTVTILCFGGGSNLQSNTVNWYRHVSGSAPKLLIHSDDERASGVSPRLSGSKSGGSASLILRGLQPEDEGDYYCAAWDDRLDAYVFGTGTKVTVL
notes: as for B3
B10: DNV3.2 Fab (Fab, V domains shown)
VH: B2 VH
VL: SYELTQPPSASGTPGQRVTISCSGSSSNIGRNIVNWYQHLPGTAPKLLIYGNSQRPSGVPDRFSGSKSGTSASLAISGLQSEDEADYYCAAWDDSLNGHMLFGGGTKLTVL
notes: as for B3
B11: DNV3.13 Fab (Fab, V domains shown)
VH: B2 VH
VL: SYVLTQPPSASGTPGQRVTMSCSGRYSNIGGNTVNWYHHLPGTAPTLLIYSNDQRPSGVPDRFSGSKSGTSASLAISGVQSEDEADYYCAAWDDNLNGLVFGTGTKVTVL
notes: as for B3
B12: DNV3.1 Fab (Fab, V domains shown)
VH: B2 VH
VL: LPVLTQPPSASGTPGQRVTISCSGSSSNIGGNSVNWYQQLPGTAPKLLIYSDNQRPSGVPDRFSGSKSGTSASLAISGLQSEEEADYYCAAWDDSLNAYVFGPGTKVTVL
B13: DNV3.9 Fab (Fab, V domains shown)
VH: B2 VH
VL: B6 VL with P1L, Y2P
notes: as for B3
B14: DNV3.12 Fab (Fab, V domains shown)
VH: B2 VH
VL: SYVLTQPPSASGTPGQRVTISCSGSSSNIGSNIVNWYQHLPGTAPKLLIYGNSQRPSGVSDRFSGSKSGTSASLAISGLQSEDEANYYCAVWDDSLDGHLLFGGGTKLTVL
notes: as for B3
B15: DNV3.16 Fab (Fab, V domains shown)
VH: B2 VH
VL: B6 VL with P1S, V10A, A13T, R15G
notes: as for B3
B16: DNV3.5 Fab (Fab, V domains shown)
VH: B2 VH
VL: B12 VL with L1Q, P2S, S26T, S33T, D52S, Q54R, K67T, E83D, N97I, P103T
notes: as for B3
B17: DNV6 Fab (Fab, V domains shown)
VH: EVQLVQSGAEVKKPGESLKISCKGSGYSFTSYWIGWVRQMPGKGLEWMGIIYPGDSDTRYSPSFQGQVTISADKSISTAYLQWSSLKASDTAMYYCASGAPGYYYDSSGYYAFDIWGQGTMVTVSS
VL: QSVVTQPPSVSGAPGQRVTVSCTGSSSNIGADFDVHWYQQLPGTAPKLLIYGNTNRPSGVPDRFSGSKSGTSASLAITGLQAEDEADYYCQSYDNSLSGVVFGGGTKVTVL
notes: as for B1
B18: DNV5 Fab (Fab, V domains shown)
VH: QVQLVQSGAEVKKPGASVKVSCKASGGTFSSYAISWVRQAPGQGLEWMGGIIPIFGTANYAQKFQGRVTITADESTSTAYMELSSLRSEDTAVYYCARASPPAAYYYYYGMDVWGQGTTVTVSS
VL: DIQMTQSPSSLSASVGDRVTITCQASQDISNYLNWYQQKPGKAPKLLIYAASILQSGVPSRFSGSGSGTDFTLTISSLQPEDFATYYCQQSHSYSETFGQGTKVEIK
notes: as for B1
B19: DNV4 Fab (Fab, V domains shown)
VH: EVQLVQSGAEVKKPGSSVKVSCKASGGTFSSYAISWVRQAPGQGLEWMGGIIPIFGTANYAQKFQGRVTITADESTSTAYMELSSLRSEDTAVYYCAREKPTGGYYGMDVWGKGTLVTVSS
VL: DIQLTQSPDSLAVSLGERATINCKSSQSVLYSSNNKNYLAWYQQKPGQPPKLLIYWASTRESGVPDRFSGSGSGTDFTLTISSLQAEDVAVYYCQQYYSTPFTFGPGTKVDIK
notes: as for B1
B20: DNV7 Fab (Fab, V domains shown)
VH: EVQLVESGAEVKKPGSSVKVSCKASGGTFSSYAISWVRQAPGQGLEWMGGIIPIFGTANYAQKFQGRVTITADKSTSTAYMELSSLRSEDTAVYYCALDGKSGFDLAFDIWGQGTMVTVSS
VL: DIQLTQSPSSLSASVGDRVTITCRASRRISSYLNWYQQKQGKAPQLLIYAASSLQSGVPSRFSGSGSGTEFTLTISSLQPEDFATYYCQQFNSYPLTFGGGTKVEIK
notes: as for B1
B21: DNV2 Fab (Fab, V domains shown)
VH: EVQLVQSGAEVKKPGASVKVSCKASGGTFSSYTISWVRQAPGQGLEWMGGIIPIFGTANYAQKFQGRVTITADKSTSTAYMELSSLRSEDTAVYYCARDPVFDYWGQGTLVTVSS
VL: DIQLTQSPSSLSASVGDRVTITCRASQNIGTYLNWYQQKPGKAPKLLIYAASSLQSGVPSRFSGSGSGTDFTLTISSLQPEDFATYYCQQLNSYPITFGQGTRLEIK
notes: as for B1

The target of the first assay is T1, recombinant human LAG3 (Sino Biological …). Nature of the assay: ELISA, recombinant human LAG3 coated, Fab detected by anti-FLAG-HRP. On the procedure:
The hexahistidine-tagged antibodies were expressed in E. coli strain HB2151 and purified from the soluble fraction of periplasm by using the Ni-NTA resin. 7 monoclonal antibodies against human LAG3 were selected by panning a large phage-display library of naïve human antibodies in the format of antigen-binding fragment (Fab). Then ELISA was performed according to standard protocols. Briefly, recombinant human LAG3 (Sino Biological Inc.) was coated on Corning EIA/RIA high-binding 96-well plates (Corning Inc.) at 50 ng per well overnight at 4° C. and blocked with 3% nonfat milk in PBS (pH7.4). Fivefold serially diluted antibodies were added and incubated at room temperature for 2 h. The plates were washed with PBS containing 0.05% Tween 20. Bound antibodies were detected by HRP-conjugated anti-FLAG tag antibody (Sigma-Aldrich). The assay was developed at room temperature with TMB substrate (Sigma-Aldrich) and monitored at 450 nm with a microplate reader.
For orientation: EC50 means the concentration giving half of the maximal effect. For the molecule B1, the concentration for a half-maximal effect (EC50) was no more than 10 nM. On to B2, for which the EC50 was 6 nM and ≤ 10 nM. As for B3, the binding result is on record as “binds”. The same measure, in the same setting: the value for B4 was “binds”; that for B5 was “binds”.

As to B6, the binding result was “binds”. Still for that read-out and setting: the value for B7 was “binds”. B8: the binding result is “binds”. On the same count and under the same terms, to B9 belongs “binds”; to B10, “binds”. Consider B11, for which the binding result is “binds”. On the same count and under the same terms, to B12 belongs “binds”. The same measure, in the same setting: to B13 belongs “binds”; to B14, “binds”. On to B15, for which the binding result was “binds”. Turning to B16, the binding result is given as “binds”. In the case of B17, the EC50 is no more than 10 nM. On the same count and under the same terms, to B18 belongs no more than 10 nM.

The next assay has the same target. Nature of the assay: phage panning and monoclonal phage ELISA on recombinant human LAG3. On the procedure:
We have recently constructed a large (size, 10¹¹) phage-display naïve human Fab library with peripheral blood B cells from about 30 healthy individuals according to the previously published protocols (de Haard et al., J Biol Chem 1999, 274: 18218-18230). This library was used for selection of antibodies against recombinant human LAG3 conjugated to magnetic beads (Dynabeads M-270 epoxy; DYNAL Inc.) as described previously (Zhu et al., J Virol 2006, 80:891-899) except that we used 5, 1 and 0.1 μg of antigen in the first, second and third round of panning, respectively. Clones that bound to the antigen were identified from the third round of biopanning by using monoclonal phage ELISA as described (Zhu et al., J Virol 2006, 80:891-899).
For orientation: In an ELISA, binding on a coated surface is turned into a signal by an enzyme label.
For B19, the binding result is “binds”. On to B20, for which the binding result is reported as “binds”. Regarding B21, the binding result is on record as “binds”.
